Laboratory results from article PMC10761869 (Nature Communications, 2024).

What was measured:
[1] = molecular target: Ssa1^TMR, TMR-labeled Ssa1(D430C) (yeast) (UniProt P10591); experiment: FRET or BRET; 20 nM Bos1^BFL with 500 nM Ssa1^TMR, with or without 500 nM Ydj1, 5 min; excitation 485 nm; chased with cpSRP43 or a five-fold excess of unlabeled Ssa1
[2] = molecular target: His6-Sgt2 (wildtype Sgt2) (UniProt Q12118); experiment: cross-linking; Bos1^Bpa translated with 35S-methionine in S30 lysate in the presence of Sgt2 or Sgt2-C258; complexes purified via His6 on Sgt2, treated with 1 mM BMH; UV crosslinking, SDS-PAGE, autoradiography; time courses after adding 15–20 µM CaM (1 mM Ca(OAc)2) or 0.75 µM Get3 with 2 mM ATP, with or without 0.75 µM Get4/5
[3] = molecular target: (Sgt2-C258)XL2, BMH-crosslinked Sgt2-C258 dimer (UniProt Q12118); experiment: as above
[4] = molecular target: His6-Sgt2-G258C, not crosslinked (UniProt Q12118); experiment: cross-linking; purified Sgt2-C258-TA^Bpa complex incubated with 1 mM BMH at RT, quenched with 10 mM DTT; anti-His immunoblot
[5] = molecular target: His6-Sgt2-G258C, not crosslinked (UniProt Q12118); experiment: cross-linking; intradimer crosslink of Sgt2 single cysteine variants with the thiol-specific homo-bifunctional crosslinker bismaleimidohexane (BMH)
[6] = molecular target: Sgt2^BFL (His6-Sgt2-LPATGG labelled with BODIPY-FL at the C-terminus); experiment: FRET or BRET; 50–150 nM purified Sgt2^BFL-Bos1^CM complex in GET buffer chased with 2.5–30 µM CaM or with unlabeled Sgt2; recovery of donor fluorescence; intrinsic koff by extrapolation of the CaM concentration dependence to the Y-axis
[7] = molecular target: Sgt2^BFL (His6-Sgt2-LPATGG labelled with BODIPY-FL at the C-terminus); experiment: FRET or BRET; 50–150 nM purified Sgt2^BFL-TA^CM complex in GET buffer chased with 14–28 µM cpSRP43; recovery of donor fluorescence (excitation 360 nm, emission 460 nm); TA dissociation
[8] = molecular target: Sgt2^BFL (His6-Sgt2-LPATGG labelled with BODIPY-FL at the C-terminus); experiment: as above; remark: listed apart in the source
[9] = molecular target: T1, His6-Sgt2 (wildtype Sgt2), Q12118
T1 chain: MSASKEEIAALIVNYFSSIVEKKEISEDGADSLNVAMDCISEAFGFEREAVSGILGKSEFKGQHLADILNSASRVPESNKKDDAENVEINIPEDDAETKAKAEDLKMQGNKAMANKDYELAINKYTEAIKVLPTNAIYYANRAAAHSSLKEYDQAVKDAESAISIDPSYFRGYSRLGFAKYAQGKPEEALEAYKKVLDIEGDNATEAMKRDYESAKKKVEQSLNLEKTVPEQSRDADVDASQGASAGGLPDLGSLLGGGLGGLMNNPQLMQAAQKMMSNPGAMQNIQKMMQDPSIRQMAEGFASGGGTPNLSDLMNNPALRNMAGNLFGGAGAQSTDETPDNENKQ

[10] = molecular target: Bos1^Bpa, in vitro translated (Strep3-tagged, 35S-methionine); experiment: pull-down + cross-linking; Bos1^Bpa translated in S30 extract in the presence of 2 µM His6-Sgt2 or Sgt2ΔN; pulldown on the strep3-tagged TA; UV crosslinking, autoradiography
Ssa1 (tagless) = molecular target: T2, Ssa1 (tagless) (yeast, UniProt P10591 1-642); experiment: pull-down; TA (0.3 µM) loaded on 3 µM Ssa1 with 2 mM ATP, with or without 3 µM Ydj1, then 0.6 µM His6-Sgt2; Talon resin, GET buffer (150 mM KOAc) with 5 mM imidazole wash; details: both partners purified
T2 construct: Ssa1, the major cytosolic Hsp70 in yeast; also called Hsp70; unlabeled Ssa1; source: recombinant His6-SUMO fusion, purified (Ni Sepharose, SUMO protease, MonoQ)

Ssa1 = molecular target: T3, Ssa1 (yeast, UniProt P10591 1-642); experiment: pull-down; 0.6 µM His6-Sgt2 added for 1 min to a preformed Ssa1-TA complex (0.3 µM TA, 3 µM Ssa1, 2 mM ATP, with or without 3 µM Ydj1) in GET buffer; captured on Talon resin at 4 °C, washed with GET buffer + 5 mM imidazole, eluted with 300 mM imidazole; silver stain and anti-Strep western blot; details: both partners purified
T3 construct: Ssa1, the major cytosolic Hsp70 of yeast; also called Hsp70; source: recombinant His6-SUMO fusion, purified (Ni Sepharose, SUMO protease, MonoQ)
T3 sequence (P10591 whole entry, the tested form may be a part): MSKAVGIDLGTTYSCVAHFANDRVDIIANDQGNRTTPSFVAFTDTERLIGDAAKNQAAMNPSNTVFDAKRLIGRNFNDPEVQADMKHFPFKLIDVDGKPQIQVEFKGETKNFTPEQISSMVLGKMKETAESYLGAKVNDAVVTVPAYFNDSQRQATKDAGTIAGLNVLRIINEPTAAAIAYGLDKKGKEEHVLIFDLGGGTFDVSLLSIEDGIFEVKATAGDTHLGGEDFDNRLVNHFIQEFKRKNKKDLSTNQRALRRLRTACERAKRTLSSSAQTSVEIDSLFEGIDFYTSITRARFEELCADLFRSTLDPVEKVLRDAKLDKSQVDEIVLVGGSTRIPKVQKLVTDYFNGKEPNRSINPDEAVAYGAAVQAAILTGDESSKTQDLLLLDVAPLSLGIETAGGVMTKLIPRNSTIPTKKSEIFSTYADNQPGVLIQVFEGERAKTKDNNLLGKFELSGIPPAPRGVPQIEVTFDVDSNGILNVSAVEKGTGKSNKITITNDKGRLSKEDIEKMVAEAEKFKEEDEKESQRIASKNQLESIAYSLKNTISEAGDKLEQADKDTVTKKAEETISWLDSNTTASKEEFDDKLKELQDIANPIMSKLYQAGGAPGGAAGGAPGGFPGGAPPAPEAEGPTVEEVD

T2 sequence (P10591 whole entry, the tested form may be a part): as above

Q: Which koff, slow phase (~50% of the fluorescence change) [1] does the source give for Bos1^BFL (BFL-labeled Bos1) here?
A: The koff, slow phase (~50% of the fluorescence change) was 0.03 min⁻¹.

Q: Which apparent rate constant of TA loss from Sgt2 to CaM (20 µM CaM) [2] does the source give for “Bos1^Bpa, in vitro translated (Strep3-tagged, 35S-methionine)” here?
A: Its apparent rate constant of TA loss from Sgt2 to CaM (20 µM CaM) is 0.78 min⁻¹.

Q: And the rate constant of loss of the TA crosslink to (Sgt2-C258)XL2 on transfer to Get3 with Get4/5 [3]?
A: The rate constant of loss of the TA crosslink to (Sgt2-C258)XL2 on transfer to Get3 with Get4/5 was 3.5 min⁻¹.

Q: With “His6-Sgt2-G258C, not crosslinked (from UniProt Q12118 1-346) (natural protein)” as the molecule, how does the percent crosslinked by BMH (intradimer, in the complex with TA) [4] read?
A: Its percent crosslinked by BMH (intradimer, in the complex with TA) is 50%.

Q: And the BMH crosslinking efficiency (intradimer) [5]?
A: Its BMH crosslinking efficiency (intradimer) is 46%.

Q: Which apparent rate constant of Bos1 release from Sgt2 with 30 µM CaM [6] does the source give for “Bos1^CM (Strep-SUMO-Bos1 labelled with coumarin)” here?
A: The apparent rate constant of Bos1 release from Sgt2 with 30 µM CaM was 0.91 min⁻¹.

Q: And the koff [6]?
A: Its koff is 0.0003 s⁻¹.

Q: And the koff [7]?
A: Its koff is 0.000283 to 0.000317 s⁻¹.

Q: What about the koff [8] of the same molecule?
A: The koff was 0.0003 s⁻¹.

Q: For SEQTITSINKRVFKDKLVFWIALILLIIGIYYVLKWLR (modifications not checked) [Strep-SUMO-Bos1 (model TA substrate Bos1), unlabelled], which equilibrium of Sgt2 closing (K closing; µs-ALEX smFRET of doubly labelled Sgt2^ATTO550/ATTO647N, mpH2MM) in the purified Sgt2-TA complex; apo-Sgt2 0.221 [9] is on record?
A: The equilibrium of Sgt2 closing (K closing; µs-ALEX smFRET of doubly labelled Sgt2^ATTO550/ATTO647N, mpH2MM) in the purified Sgt2-TA complex; apo-Sgt2 0.221 was 0.597.

B1: His6-Sgt2ΔN (residues 96–346) (domain or fragment)
chain: AETKAKAEDLKMQGNKAMANKDYELAINKYTEAIKVLPTNAIYYANRAAAHSSLKEYDQAVKDAESAISIDPSYFRGYSRLGFAKYAQGKPEEALEAYKKVLDIEGDNATEAMKRDYESAKKKVEQSLNLEKTVPEQSRDADVDASQGASAGGLPDLGSLLGGGLGGLMNNPQLMQAAQKMMSNPGAMQNIQKMMQDPSIRQMAEGFASGGGTPNLSDLMNNPALRNMAGNLFGGAGAQSTDETPDNENKQ
Q: Which percent of Bos1^Bpa crosslinked [10] does the source give for B1 here?
A: Its percent of Bos1^Bpa crosslinked is 6%.

B2: His6-Sgt2 (wildtype Sgt2) (natural protein, UniProt Q12118 1-346, looked up)
chain: T1 chain
notes: Sgt2, cochaperone of the GET pathway; The functional rows were measured with Sgt2 doubly labelled with ATTO550/ATTO647N at the C-terminus (His6-Sgt2-LPATGG ligated to GGGC-dye by sortase A); also called Sgt2-WT; unlabeled Sgt2; source: cells lysed with BugBuster
Q: B2 was tested. Which percent of Bos1^Bpa crosslinked [10] did it give?
A: Its percent of Bos1^Bpa crosslinked is > 43%.

Q: Does B2 bind (Ssa1 (tagless))?
A: Result: binds

B3: His6-tagged wildtype Sgt2 (natural protein, S. cerevisiae (printed as ScSgt2), UniProt Q12118 1-346, looked up)
chain: T1 chain
notes: Sgt2 (ScSgt2); also called His6-Sgt2; His-Sgt2-WT
Q: Does B3 bind (Ssa1)?
A: Result: binds
